Reference: patent US10028997B2, “Systems and methods for attracting and trapping brain cancer cells” (GEISINGER HEALTH SYSTEM, priority 2014, dated 2018)

B1: denatured Lcn2: Lcn2 denatured by boiling in SDS buffer for 10 minutes (protein)
chain: QDSTSDLIPAPPLSKVPLQQNFQDNQFQGKWYVVGLAGNAILREDKDPQKMYATIYELKEDKSYNVTSVLFRKKKCDYWIRTFVPGCQPGEFTLGNIKSYPGLTSYLVRVVSTNYNQHAMVFFKKVSQNREYFKITLYGRTKELTSELKENFIRFSKSLGLPENHIVFPVPIDQCIDG
B2: lipocalin-2 (protein, listed as Homo sapiens)
chain: MPLGLLWLGLALLGALHAQAQDSTSDLIPAPPLSKVPLQQNFQDNQFQGKWYVVGLAGNAILREDKDPQKMYATIYELKEDKSYNVTSVLFRKKKCDYWIRTFVPGCQPGEFTLGNIKSYPGLTSYLVRVVSTNYNQHAMVFFKKVSQNREYFKITLYGRTKELTSELKENFIRFSKSLGLPENHIVFPVPIDQCIDG
notes: member of the lipocalin family, a 23 kDa hydrophilic protein

Columns and labels:
Format in all cases: cell-based
[1] = system: human glioblastoma stem cells (hGSCs); assay: Boyden chamber migration, crystal violet staining and microscope cell count; details: for hGSC migration (cells counted in bottom chamber): 10 μg/ml in bottom chamber, 16 hours, serum free medium, p<0.0001, FIGS. 3B and 3C
Protocol: Finally, human glioblastoma cell migration was also observed under the microscope. hGSCs were seeded in the upper Boyden chamber in serum free medium. Lcn2 was added to the bottom chamber at 10 μg/ml and cells were allowed to migrate for 16 hours. The bottom chamber was fixed and stained with crystal violet and cells were counted using a Zeiss Phase Contrast microscope at 10× magnification. […] To show the specificity of the Lcn2 chemotactic effect and to determine if the effect of Lcn2 on migration is […], Lcn2 was denatured by boiling in SDS buffer for 10 minutes and then added to the bottom Boyden chamber.

[2] = system: human glioblastoma stem cells (hGSCs); assay: XCELLIGENCE RTCA CIM-16 (Boyden chamber) migration of hGSCs, Lcn2 in lower chamber
Protocol: Human glioblastoma stem cells (hGSCs) were seeded in an XCELLIGENCE RTCA CIM-16 plate, which functions as a Boyden chamber, in serum-free media. The XCELLIGENCE system (ACEA BIOSCIENCES, INC.) measures total surface area covered by cell membrane by detecting the electrical impedance, using microelectronic biosensor technology (Ness et al., NATURE COMMUNICATIONS 4:1912 (2013)). The lower chamber was supplemented with 10 μg/ml Lcn2 or 10% serum. Cell migration from the upper to the lower chamber was measured and plotted over time and the migration slope was calculated using RTCA DP software (ACEA BIOSCIENCES, INC.). The experiment was repeated four times and the results are presented as average+/−standard deviation.

human glioblastoma cells = assay: XCELLIGENCE migration after Lcn2 pre-treatment of glioblastoma cells; details: pre-treated with 10 μg/ml Lcn2 for 24 hours; p<0.0001; FIGS. 2B and 2C
Protocol: To further determine the effect of Lcn2 on glioblastoma cell migration, glioblastoma cells were first pre-treated with 10 μg/ml Lcn2 for 24 hours. Migration was subsequently quantified using the XCELLIGENCE system in the presence or absence of Lcn2 as a chemo-attractant in the lower Boyden chamber.

[3] = system: human glioblastoma stem cells (hGSCs); assay: Chemotaxis assay plate, linear Lcn2 gradient; details: linear gradient of 10 μg/ml Lcn2 for 8 hours, FIGS. 4A-C

Row | Molecule | hGSC migration (cells counted in bottom chamber) [1] | migration of hGSCs from upper to lower chamber ([2]; 10 μg/ml Lcn2 in lower chamber vs 10% serum, serum-free media, FIG. 2A) | attraction of hGSCs toward the bottom chamber containing the Lcn2 depot ([2]; 10 μg/ml Lcn2 in lower chamber, FIG. 3A) | migration after pre-treatment with Lcn2 (human glioblastoma cells) | rate of migration of hGSCs, lipocalin-2 in one chamber versus PBS in one chamber or lipocalin-2 in both chambers ([1]; FIGS. 3B, 3C) | migration towards the opposite direction (chemokinesis) [3] | migration toward the linear Lcn2 gradient (chemotaxis) ([3]; p<0.005)
1 | B1 | No effect on hGSC migration was observed | – | – | – | – | – | –
2 | B2 | a significant increase in hGSC migration was observed | increases the migration of hGSCs as compared to serum alone | significantly attracts hGSCs toward the bottom chamber | induced a significant increase in migration | increases the rate of migration of human glioblastoma stem cells (hGSCs) to the lipocalin-2-containing chamber | no difference in migration towards the opposite direction | increased migration toward the linear Lcn2 gradient
